In publication PMC10485824 (Life Science Alliance, 2023):
Positions count from the first letter of the chain named. Names and notes keep the numbering of the source. Values joined by “and” are separate entries in the source; they are usually repeats but may differ in a detail not shown here. Equal entries are not always repeated.

T1: RIPK2^1−300 (human, UniProt O43353 1-300, labelled with the Monolith Protein labelling kit RED-NHS second generation (primary amines) for MST only)
T1 chain: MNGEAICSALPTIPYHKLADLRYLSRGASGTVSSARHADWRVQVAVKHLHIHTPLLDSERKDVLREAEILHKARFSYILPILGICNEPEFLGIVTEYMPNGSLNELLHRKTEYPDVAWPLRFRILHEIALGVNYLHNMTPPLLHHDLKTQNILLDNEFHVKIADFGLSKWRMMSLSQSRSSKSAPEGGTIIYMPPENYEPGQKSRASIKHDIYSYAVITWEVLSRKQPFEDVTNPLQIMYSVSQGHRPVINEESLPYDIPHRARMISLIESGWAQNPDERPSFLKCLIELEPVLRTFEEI

B1: XIAP BIR2^93−240 (domain or fragment, human)
chain: GPINGFYLENSATQSTNSGIQNGQYKVENYLGSRDHFALDRPSETHADYLLRTGQVVDISDTIYPRNPAMYSEEARLKSFQNWPDYAHLTPRELASAGLYYTGIGDQVQCFCCGGKLKNWEPCDRAWSEHRRHFPNCFFVLGRNLNIRSE
notes: two additional residues after the P3C cleavage site; XIAP, human, residues 93-240; source: E. coli Rosetta 2, purified (glutathione sepharose, P3C cleavage, SEC); not shown: GST, N-terminal, cleaved
B2: XIAP BIR2^124–240 (domain or fragment, human)
chain: GPRDHFALDRPSETHADYLLRTGQVVDISDTIYPRNPAMYSEEARLKSFQNWPDYAHLTPRELASAGLYYTGIGDQVQCFCCGGKLKNWEPCDRAWSEHRRHFPNCFFVLGRNLNIRSE
notes: two additional residues after the P3C cleavage site; XIAP, human, linker region (124-154) and BIR2 domain, residues 124-240; also called long BIR2 construct; source: E. coli Rosetta 2, purified (glutathione sepharose, P3C cleavage, SEC); not shown: GST, N-terminal, cleaved
B3: XIAP BIR2^124−263 (domain or fragment, human)
chain: GPRDHFALDRPSETHADYLLRTGQVVDISDTIYPRNPAMYSEEARLKSFQNWPDYAHLTPRELASAGLYYTGIGDQVQCFCCGGKLKNWEPCDRAWSEHRRHFPNCFFVLGRNLNIRSESDAVSSDRNFPNSTNLPRNPSMA
notes: two additional residues after the P3C cleavage site; XIAP, human, residues 124-263; source: E. coli Rosetta 2, purified (glutathione sepharose, P3C cleavage, SEC); not shown: GST, N-terminal, cleaved
B4: XIAP BIR2AG^124–240 (domain or fragment, human)
chain: B2 chain with C81A, C92G
notes: two additional residues after the P3C cleavage site; XIAP, human, residues 124-240 with the AG mutations C202A and C213G; For NMR uniformly 15N- or 13C/15N-labelled (M9 medium); also called AG construct (long); ^15N-labeled XIAP BIR2; source: E. coli Rosetta 2, purified (glutathione sepharose, P3C cleavage, SEC); not shown: GST, N-terminal, cleaved
B5: RIPK2^1−317 (domain or fragment, human, UniProt O43353 1-317, looked up)
chain: MNGEAICSALPTIPYHKLADLRYLSRGASGTVSSARHADWRVQVAVKHLHIHTPLLDSERKDVLREAEILHKARFSYILPILGICNEPEFLGIVTEYMPNGSLNELLHRKTEYPDVAWPLRFRILHEIALGVNYLHNMTPPLLHHDLKTQNILLDNEFHVKIADFGLSKWRMMSLSQSRSSKSAPEGGTIIYMPPENYEPGQKSRASIKHDIYSYAVITWEVLSRKQPFEDVTNPLQIMYSVSQGHRPVINEESLPYDIPHRARMISLIESGWAQNPDERPSFLKCLIELEPVLRTFEEITFLEAVIQLKKTKLQSV
notes: Incubated with nucleotide (ATP or AMPPCP) and MgCl2 before XIAP BIR2 was added; ATP-MgCl2 is said to promote full phosphorylation; Antiparallel dimer in the complex; also called RIPK2 kinase; RIPK2 wt; source: sf21 insect cells (baculovirus), purified (amylose resin, TEV cleavage, anion exchange)
B6: RIPK2^1−300 (domain or fragment, human, UniProt O43353 1-300, looked up)
chain: T1 chain
modifications: labelled with the Monolith Protein labelling kit RED-NHS second generation (primary amines) for MST only
notes: RIPK2, human, kinase domain, residues 1-300; also called kinase domain of RIPK2 (residues 1–300); source: sf21 insect cells (baculovirus), purified (amylose resin, TEV cleavage, anion exchange)
B7: XIAP BIR2^154–240 (domain or fragment, human, UniProt P98170 154-240, looked up)
chain: YPRNPAMYSEEARLKSFQNWPDYAHLTPRELASAGLYYTGIGDQVQCFCCGGKLKNWEPCDRAWSEHRRHFPNCFFVLGRNLNIRSE
notes: Plasmid pET49, a gift from Katrin Rittinger; also called short BIR2 construct; source: E. coli Rosetta 2, purified (glutathione sepharose, P3C cleavage, SEC); not shown: GST, N-terminal, cleaved
B8: XIAP BIR2AG^154–240 (domain or fragment, human, UniProt P98170 154-240, looked up)
chain: B7 chain with C49A, C60G
notes: XIAP, human, BIR2 domain, residues 154-240 with the AG mutations C202A and C213G; Plasmid pET49, a gift from Katrin Rittinger; also called AG construct (short); source: E. coli Rosetta 2, purified (glutathione sepharose, P3C cleavage, SEC); not shown: GST, N-terminal, cleaved
B9: XIAP BIR2^93−263 (domain or fragment, human)
chain: GPINGFYLENSATQSTNSGIQNGQYKVENYLGSRDHFALDRPSETHADYLLRTGQVVDISDTIYPRNPAMYSEEARLKSFQNWPDYAHLTPRELASAGLYYTGIGDQVQCFCCGGKLKNWEPCDRAWSEHRRHFPNCFFVLGRNLNIRSESDAVSSDRNFPNSTNLPRNPSMA
notes: two additional residues after the P3C cleavage site; XIAP, human, residues 93-263; source: E. coli Rosetta 2, purified (glutathione sepharose, P3C cleavage, SEC); not shown: GST, N-terminal, cleaved
B10: RIPK2^1−317 K209A (domain or fragment, human, UniProt O43353 1-317, looked up)
chain: B5 chain with K209A
notes: Incubated with 500 μM ATP and 5 mM MgCl2 before XIAP BIR2 was added; also called RIPK2–K209A (recombinant); source: sf21 insect cells (baculovirus), purified as RIPK2 wt
B11: RIPK2^1−317 K209R (domain or fragment, human, UniProt O43353 1-317, looked up)
chain: B5 chain with K209R
notes: Incubated with 500 μM ATP and 5 mM MgCl2 before XIAP BIR2 was added; also called RIPK2–K209R (recombinant); source: sf21 insect cells (baculovirus), purified as RIPK2 wt
B12: RIPK2^1−317 S282L (domain or fragment, human, UniProt O43353 1-317, looked up)
chain: B5 chain with S282L
notes: Incubated with 500 μM ATP and 5 mM MgCl2 before XIAP BIR2 was added; also called RIPK2–S282L (recombinant); source: sf21 insect cells (baculovirus), purified as RIPK2 wt

Assays:
RIPK2^1−300 [1] = biological target: T1, RIPK2^1−300; experiment: MST
RIPK2^1−300 [2] = biological target: B6; experiment: MST; RIPK2 1-300 labelled with RED-NHS at 20 nM final, XIAP BIR2 constructs titrated from 1.2-2,500 nM; 20 mM Hepes pH 7.5, 150 mM NaCl, 2% glycerol, 0.05% Tween-20; 20°C; one-site binding model, triplicates; conditions: both partners purified
RIPK2^1−300 [3] = biological target: B6; experiment: native MS; complex fractions reapplied on Superdex 200 10/300 increase in 250 mM ammonium acetate with 1 mM DTT; concentration range of 10 μM; conditions: both partners purified
RIPK2^1−317 [4] = biological target: B5; experiment: as above; conditions: both partners purified
[5] = biological target: the molecule itself; experiment: as above
RIPK2^1−317 [6] = biological target: B5; experiment: cryo-EM structure; single-particle cryo-EM of the SEC-purified RIPK2 1-317-XIAP BIR2 154-240 complex, Titan Krios 300 keV, untilted and tilted data, 3.15 Å; conditions: both partners purified
[7] = biological target: the molecule itself; experiment: SEC; RIPK2 1-317 wt or mutant with 500 μM ATP and 5 mM MgCl2 on ice, XIAP BIR2 154-240 added in excess (1:2), Superdex 200 3.2/300 increase in buffer C; fractions on SDS-PAGE

## B1
RIPK2^1−300 [1]
  Kd: 92.9 nM
RIPK2^1−300 [2]
  binding result: binds

## B2
RIPK2^1−300 [1]
  Kd: 85.9 nM
RIPK2^1−300 [3]
  stoichiometry N: 1 RIPK2 per XIAP BIR2 (printed as the ratio 2:2) and 2 RIPK2 per XIAP BIR2 (printed as the ratio 2:1)

## B3
RIPK2^1−300 [1]
  Kd: 142 nM
RIPK2^1−300 [2]
  binding result: binds

## B4
RIPK2^1−317 [4]
  stoichiometry N: 1 RIPK2 per XIAP BIR2 (printed as the ratio 2:2)

## B5
[5]
  stoichiometry N: 2 molecules of RIPK2

## B6
[5]
  stoichiometry N: 2 molecules of RIPK2

## B7
RIPK2^1−317 [6]
  stoichiometry N: 2 RIPK2 per XIAP BIR2 (printed as the ratio 2:1)
RIPK2^1−300 [2]
  Kd: 85.6 ± 18.7 nM
RIPK2^1−317 [4]
  stoichiometry N: 1 RIPK2 per XIAP BIR2 (printed as the ratio 2:2)

## B8
RIPK2^1−317 [4]
  stoichiometry N: 2 RIPK2 per XIAP BIR2 (printed as the ratio 2:1) and 1 RIPK2 per XIAP BIR2 (printed as the ratio 2:2)

## B9
RIPK2^1−300 [2]
  binding result: binds

## B10
[7]
  binding result: binds

## B11
[7]
  binding result: binds

## B12
[7]
  binding result: binds
